Test results from US20250281611A1 (BIOSCEPTRE AUST, published 2025).
Blank lines part the entries; values can stand above or below the binder they belong to.

How the values were obtained:
nfP2X7 CAR 1 [1] = molecular target: T1, nfP2X7 CAR 1; experiment: flow cytometry, CAR T cells, anti-His-FITC, EGFR+ over EGFR- cells
T1 construct: Expressed on T cells with truncated EGFR as marker gene; also called anti-nfP2X7 receptor CAR 1; nfP2X7 targeted CAR on EGFR+ T cells
In short: (§1)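 CAR T cells incubated with BRiDGE variants at saturating concentrations; bound BRiDGE detected with anti-His-FITC by flow cytometry. EGFR marks CAR expression. Value is median fluorescence intensity on EGFR+ (CAR+) cells divided by that on EGFR− (CAR−) cells.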

CD33 [2] = molecular target: T2, CD33 (UniProt P20138 18-364, limits assumed); experiment: flow cytometry, MOLM-13 cells, anti-His-FITC detection
T2 construct: whole, on cells; also called Siglec-3; CD33 on MOLM-13 cells
T2 sequence (P20138 18-364 limits assumed): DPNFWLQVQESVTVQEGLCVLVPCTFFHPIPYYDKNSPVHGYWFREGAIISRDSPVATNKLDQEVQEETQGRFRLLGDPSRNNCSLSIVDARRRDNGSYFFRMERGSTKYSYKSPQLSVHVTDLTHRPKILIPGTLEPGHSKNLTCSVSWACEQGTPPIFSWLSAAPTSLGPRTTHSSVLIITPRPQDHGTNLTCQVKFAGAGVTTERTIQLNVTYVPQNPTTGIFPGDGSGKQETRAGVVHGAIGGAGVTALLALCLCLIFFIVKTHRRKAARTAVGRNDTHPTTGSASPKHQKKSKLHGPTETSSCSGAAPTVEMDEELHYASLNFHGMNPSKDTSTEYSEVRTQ
Protocol: (§2) MOLM-13 cells were incubated with different CD33 BRIDGE variants at saturating concentrations. […] The MFI intensity correlates with the number of secondary antibodies bound to the CD33 BRIDGE variants that are only detected if they are bound to the MOLM-13 cells. MFI: median fluorescence intensity. BLItz: Bio-Layer interferometry (BLI) technology using HIS-tag identification tips. […] The higher the MFIR, the stronger the binding.

nfP2X7 CAR 1 [3] = molecular target: T1, nfP2X7 CAR 1; experiment: flow cytometry, nfP2X7 CAR T cells (EGFR+), anti-His-FITC detection
CD33 [4] = molecular target: T2, CD33; experiment: flow cytometry, MOLM-13 cells, anti-His-FITC detection, ratio to no bridge
Protocol: as §2

nfP2X7 CAR 1 [5] = molecular target: T1, nfP2X7 CAR 1; experiment: flow cytometry, CAR T cells, anti-His-FITC, EGFR+ MFI over background 0.4
In short: as §1

CD19 [6] = molecular target: T3, CD19 (UniProt P15391 20-556, limits assumed); experiment: flow cytometry, JeKo-1 cells, BIL03s-AF647 detection, MFI over no-bridge control
T3 construct: whole, on cells; also called CD19 on JeKo-1
T3 sequence (looked up): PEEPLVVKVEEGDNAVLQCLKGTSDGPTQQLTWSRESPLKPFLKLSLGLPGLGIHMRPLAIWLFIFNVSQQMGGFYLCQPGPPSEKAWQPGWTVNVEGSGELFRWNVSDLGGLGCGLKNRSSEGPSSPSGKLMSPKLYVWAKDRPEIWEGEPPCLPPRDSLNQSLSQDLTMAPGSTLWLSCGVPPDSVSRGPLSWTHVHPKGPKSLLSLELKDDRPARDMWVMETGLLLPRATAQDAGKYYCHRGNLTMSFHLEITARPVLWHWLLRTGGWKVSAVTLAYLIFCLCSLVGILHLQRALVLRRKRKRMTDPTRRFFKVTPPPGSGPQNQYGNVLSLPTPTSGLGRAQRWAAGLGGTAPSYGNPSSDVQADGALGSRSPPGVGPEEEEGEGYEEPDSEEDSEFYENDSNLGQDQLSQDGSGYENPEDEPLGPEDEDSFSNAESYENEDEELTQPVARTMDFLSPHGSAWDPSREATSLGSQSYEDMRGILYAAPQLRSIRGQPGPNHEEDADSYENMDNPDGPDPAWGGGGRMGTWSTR
Protocol: as §2, with “JeKo-1” for “MOLM-13”, “CD19 BRiDGE” for “CD33 BRIDGE”, “secondary bound” for “secondary”, “BLitz:” for “BLItz:”

nfP2X7 CAR 1 [7] = molecular target: T4, nfP2X7 CAR 1; experiment: flow cytometry, nfP2X7 CAR 1 T cells (EGFR+ gate), anti-His-FITC detection
T4 construct: CAR-positive cells gated by the co-expressed EGFR marker; also called nfP2X7 targeted CAR; nfP2X7 CAR on EGFR+ T cells
Protocol: (§3) nfP2X₇ CAR T cells were incubated with different BRiDGE variants at saturating concentrations. […] The MFI intensity correlates with the number of secondary bound antibodies bound to the BRiDGEs that are only detected if they are bound to the CAR T cells. EGFR was used as a marker gene to detect the CAR expression. Thus, the EGFR+ T cell population was defined as the CAR expressing cells and the EGFR− T cell population was defined as the CAR negative subset. MFI: median fluorescence intensity. EGFR: epidermal growth factor receptor. BLItz: Bio-Layer interferometry (BLI) technology using HIS-tag identification tips. HIS-tag MFI Ratio: relative index that is calculated by the testing condition MFI divided by the control MFI, which corresponds to the MFI measured on EGFR+ T cells (defined as CAR positive cells) divided by the MFI measured on the EGFR− T cells (defined as CAR negative cells). […] The higher the MFIR, the stronger the binding.

nfP2X7 CAR 1 [8] = molecular target: T4, nfP2X7 CAR 1; experiment: flow cytometry, anti-His-FITC, MFI on EGFR+ (CAR+) T cells over background 0.44
Protocol: as §3

CD19 [9] = molecular target: T3, CD19; experiment: flow cytometry, JeKo-1 cells, bridge at saturating conc., BIL03s-AF647 detection
Protocol: as §2, with “JeKo-1” for “MOLM-13”, “CD19 BRiDGE” for “CD33 BRIDGE”, “secondary bound” for “secondary”, “BLitz:” for “BLItz:”

CD19 [10] = molecular target: T3, CD19; experiment: flow cytometry, JeKo-1 cells, anti-His-FITC detection, MFI over no-bridge control
Protocol: as §2, with “JeKo-1” for “MOLM-13”, “CD19 BRiDGE” for “CD33 BRIDGE”, “secondary bound” for “secondary”, “BLitz:” for “BLItz:”

nfP2X7 CAR 1 [11] = molecular target: T4, nfP2X7 CAR 1; experiment: flow cytometry, anti-His-FITC, MFI on EGFR+ (CAR+) over EGFR- (CAR-) T cells
Protocol: as §3

CD19 [12] = molecular target: T3, CD19; experiment: flow cytometry, JeKo-1 cells, bridge at saturating conc., anti-His-FITC detection
Protocol: as §2, with “JeKo-1” for “MOLM-13”, “CD19 BRiDGE” for “CD33 BRIDGE”, “secondary bound” for “secondary”, “BLitz:” for “BLItz:”

HisTag MFI Ratio of EGFR+/EGFR- (nfP2X7 CAR 1 [1]): 3.3
MFI HisTag FITC (CD33 [2]): 6.72
MFI HisTag FITC in EGFR+ Population (nfP2X7 CAR 1 [3]): 1.65
MFIR HisTag FITC (CD33 [4]): 10
HisTag MFI Ratio (background 0.4) (nfP2X7 CAR 1 [5]): 4.1
B1: CD33 BRIDGE variant B36 (Fab)
light: DFPGHNYTTRNILPGLNITSTFHKTSGSGKGGGGSEPKSSDKTHTGGGGSDIQMTQSPSSLSASVGDRVTITCRASESVDNYGISFMNWFQQKPGKAPKLLIYAASNQGSGVPSRFSGSGSGTDFTLTISSLQPDDFATYYCQQSKEVPWTFGQGTKVEIKRTVAAPSVFIFPPSDEQLKSGTASVVCLLNNFYPREAKVQWKVDNALQSGNSQESVTEQDSKDSTYSLSSTLTLSKADYEKHKVYACEVTHQGLSSPVTKSFNRGECHHHHHH
heavy: QVQLVQSGAEVKKPGSSVKVSCKASGYTFTDYNMHWVRQAPGQGLEWIGYIYPYNGGTGYNQKFKSKATITADESTNTAYMELSSLRSEDTAVYYCARGRPAMDYWGQGTLVTVSSASTKGPSVFPLAPSSKSTSGGTAALGCLVKDYFPEPVTVSWNSGALTSGVHTFPAVLQSSGLYSLSSVVTVPSSSLGTQTYICNVNHKPSNTKVDKKVEPKSCHHHHHH
notes: Lintuzumab-based Fab bridging molecule

MFIR BIL03 AF647 (CD19 [6]): 19.6
MFI HisTag FITC in EGFR+ Population (nfP2X7 CAR 1 [7]): 2.05
HisTag MFI Ratio (background 0.44) (nfP2X7 CAR 1 [8]): 4.7
MFI Bil03 AF647 (CD19 [9]): 9.02
MFIR HisTag FITC (CD19 [10]): 5.05
HisTag MFI Ratio of EGFR+/EGFR- (nfP2X7 CAR 1 [11]): 4.1
MFI HisTag FITC (CD19 [12]): 3.89
B2: CD19 BRIDGE variant B4 (Fab)
heavy: EVQLVESGGGLVKPGGSLKLSCAASGYTFTSYVMHWVRQAPGKGLEWIGYINPYNDGTKYNEKFQGRVTISSDKSISTAYMELSSLRSEDTAMYYCARGTYYYGTRVFDYWGQGTLVTVSSASTKGPSVFPLAPSSKSTSGGTAALGCLVKDYFPEPVTVSWNSGALTSGVHTFPAVLQSSGLYSLSSVVTVPSSSLGTQTYICNVNHKPSNTKVDKKVEPKSCHHHHHH
light: GHNYTTRNILPGLNITSTFHKTSGSGKEPKSSDKTHTDIVMTQSPATLSLSPGERATLSCRSSKSLQNVNGNTYLYWFQQKPGQSPQLLIYRMSNLNSGVPDRFSGSGSGTEFTLTISSLEPEDFAVYYCMQHLEYPITFGAGTKLEIKRTVAAPSVFIFPPSDEQLKSGTASVVCLLNNFYPREAKVQWKVDNALQSGNSQESVTEQDSKDSTYSLSSTLTLSKADYEKHKVYACEVTHQGLSSPVTKSFNRGEC

MFIR BIL03 AF647 (CD19 [6]): 12
MFI HisTag FITC in EGFR+ Population (nfP2X7 CAR 1 [7]): 2.08
HisTag MFI Ratio (background 0.44) (nfP2X7 CAR 1 [8]): 4.7
MFI Bil03 AF647 (CD19 [9]): 5.5
MFIR HisTag FITC (CD19 [10]): 4.42
HisTag MFI Ratio of EGFR+/EGFR- (nfP2X7 CAR 1 [11]): 4.2
MFI HisTag FITC (CD19 [12]): 3.4
B3: CD19 BRIDGE variant B5 (Fab)
heavy: B2 heavy
light: GHNYTTRNILPGLNITSTFHKTSGSGKGSEPKSSDKTHTDIVMTQSPATLSLSPGERATLSCRSSKSLQNVNGNTYLYWFQQKPGQSPQLLIYRMSNLNSGVPDRFSGSGSGTEFTLTISSLEPEDFAVYYCMQHLEYPITFGAGTKLEIKRTVAAPSVFIFPPSDEQLKSGTASVVCLLNNFYPREAKVQWKVDNALQSGNSQESVTEQDSKDSTYSLSSTLTLSKADYEKHKVYACEVTHQGLSSPVTKSFNRGEC

MFIR BIL03 AF647 (CD19 [6]): 16.8
MFI HisTag FITC in EGFR+ Population (nfP2X7 CAR 1 [7]): 2.26
HisTag MFI Ratio (background 0.44) (nfP2X7 CAR 1 [8]): 5.1
MFI Bil03 AF647 (CD19 [9]): 7.71
MFIR HisTag FITC (CD19 [10]): 4.25
HisTag MFI Ratio of EGFR+/EGFR- (nfP2X7 CAR 1 [11]): 4.3
MFI HisTag FITC (CD19 [12]): 3.27
B4: CD19 BRIDGE variant B10 (Fab)
heavy: B2 heavy
light: GHNYTTRNILPGLNITSTFHKTSGSGKEPKSSDKTHTGSDIVMTQSPATLSLSPGERATLSCRSSKSLQNVNGNTYLYWFQQKPGQSPQLLIYRMSNLNSGVPDRFSGSGSGTEFTLTISSLEPEDFAVYYCMQHLEYPITFGAGTKLEIKRTVAAPSVFIFPPSDEQLKSGTASVVCLLNNFYPREAKVQWKVDNALQSGNSQESVTEQDSKDSTYSLSSTLTLSKADYEKHKVYACEVTHQGLSSPVTKSFNRGEC
